Results on seven sequences are retold here after the DeepSol protein solubility set.

A short description of this data set: soluble on expression in E. coli; label from the status in PepcDB or PDB records.
In the case of “MDDPFASLEPLAVAPSGPEGVRAQFDQMEDIPPPRPRQPPPAQEDPVEIEVTEDGVARAFTEKYGGTLRFDHDAGRWYHWQEDHWQADTTSRAFEYCRRLARLASEGAKHSLLSTARKASFAGGVERLARADPAHAVTQEAWDRDPWLVACPGETVDLRTGRSAVPRPEDGITRRVAVAPAAQETCPTWWQFLEDATGADSSVMRFLQQWAGYSLTGITREHTLVFLYGDGGNGKSVFINTLTGLLGDYAATAGMETFTASKSDRHPTDLAMLAGARLVAASETEEGRAWAESRIKQMTGGDRITARFMRRDFFTYTPQFKLTLVGNHRPALANVKPVEPWALVVPAELETVAQQVLAEIAAAAVSDVNPFSGTLELIVEPGLTSATGWYLIGNPALHDGLAHAFLDGQSAPRIETRAGWNTLGMEFRLTWAVDAKFIGTASWFRNPGASGCPRCRPRNAQRQGVALLCLARRSEVLDRLEHHHHHH”, the “soluble on expression in E. coli” value was “not soluble”.

As for “PKYTLHYFPLMGRAELCRFVLAAHGEEFTDRVVEMADWPNLKATMYSNAMPVLDIDGTKMSQSMCIARHLAREFGLDGKTSLEKYRVDEITETLQDIFNDVVKIKFAPEAAKEAVQQNYEKSCKRLAPFLEGLLVSNGGGDGFFVGNSMTLADLHCYVALEVPLKHTPELLKDCPKIVALRKRVAECPKIAAYLKKRPVRDF”, the “soluble on expression in E. coli” value is given as “soluble”. Turning to “MAHHHHHHMDARVHRSKRGCGRVLKRSRASSPEVVAEVGTGRPGDPFVLPLRSSPNGSGCHHCPEHSCDCLYVSKELERCYLSLQVSRQVTCKGRRELCAKSVLPPFVARLLRVANVTADDTFYDLGCGNGSVLFHVALATGASCVGVEINEHNAKVAKEAWTHLRPVFEKRRGRKLDVSIVCGDFCKVLKQDNYFSSSCVVWIANLLMPRFVNHYLSERLRSLPIGSRVLCMEDLYPHSRSVAAARDPDAFEKFEMVDYRWQEDSVEWSPASGPFYLYIKRS”, the “soluble on expression in E. coli” value was “not soluble”. Regarding “MGSDKIHHHHHHMNDQLTEYRIKKAPYYRATGDETELYEAAYSVRMPMMLKGPTGCGKTRFVEYMAYKLGKPLITVACNEDMTASDLVGRFLLDPQGTRWQDGPLTLAARLGAICYLDEVVEARQDTTVVIHPLTDNRRVLPLEKKGELVQAHPDFQLVISYNPGYQSLMKDLKQSTKQRFGALDFNYPDHEIEAEIVSHETGVNKEVADKLVSIAERARNLKGHGLDEGISTRMLVYAGSLINKGVEAKAACRVTLVRPITDDPDMRDALDAAVTTYF”, the “soluble on expression in E. coli” value is given as “not soluble”. For MHKINKWSVIYNINSTVTRALRDLMQGILQKI the value was “soluble”; for “MSLDCKIDIIPRVLHFKQPAGTSRGTYTTRKVWYLHFTAPEFPNWVGIGECAPLPNLSCDDLPDYEEVLAKICRQVENQGGKLDMEALCKYPSILFGLETAIRHFFEGSWALWDTPFSRGEAGIPINGLIWMGDFNRMLAQIEKKMEAGFRCIKLKIGAINFEEELALLQHIRSHYSSKEIELRVDANGAFSPTDAMEKLKRLSELDLHSIEQPIRAGQWEEMARLTSESPLPIALDEELIGYNTWEEKQRLLSAIRPQYIIIKPSLHGGLAGGEEWIAEAEKLNIGWWITSALESNIGLNAIAQWCATFQNPLPQGLGTGLLFTDNVEMPLEIRKDCLWFCKEGHHHHHH”, “soluble”; for “MTEPDVAGAPASKPEPASTGAASAAQLSGYSRVLLKLGGEMFGGGQVGLDPDVVAQVARQIADVVRGGVQIAVVIGGGNFFRGAQLQQLGMERTRSDYMGMLGTVMNSLALQDFLEKEGIVTRVQTAITMGQVAEPYLPLRAVRHLEKGRVVIFGAGMGLPYFSTDTTAAQRALEIGADVVLMAKAVDGVFAEDPRVNPEAELLTAVSHREVLDRGLRVADATAFSLCMDNGMPILVFNLLTDGNIARAVRGEKIGTLVTT”, “soluble”.
